Measured values taken from patent publication US20090312252A1, “Antimicrobial Activity in Variants of Lacritin” (priority 2006, published 2009).
Where no end group is shown, it is not given here.

How the values were obtained:
E. coli (ATCC #10536) = assay type: cell-based; conditions: colony forming unit assay, phosphate buffer, 37°C; by extrapolation of concentration curves
Experimental: (§1) Antimicrobial Assays. The antimicrobial activities were tested using a colony forming unit assay. E. coli (ATCC #10536) was grown in LB medium at 37° C. to an OD600 of 0.5. The cells were washed 3 times in phosphate buffer (pH 7.2) and resuspended in 1 ml of the same buffer. The cells were then diluted 1:100 using two 10 fold serial dilutions. Following dilutions, 50 μl of cells were incubated with 100 μl of sample protein and 350 μl of phosphate buffer at 37° C. In place of sample protein, 100 μl of 10 mM phosphate buffered saline (pH 7.4) was used as the control sample. Following incubation, the cells were diluted 1:10 before plating 100 μl-200 μl in quadruplicates. The plates were incubated overnight at 37° C. and colony forming units were counted. The percentage of cell death was expressed using the following equation, [1-(cells surviving peptide)/(average colonies counted from PBS control)]×100%. The LC50 is defined as the lethal concentration of peptide required to kill 50 percent of the present bacteria and was determined for each Lacritin variant by extrapolation of concentration curves.
Lethal concentrations (μg/ml) of lacritin constructs required to kill 50 percent of E. coli in the antimicrobial assay. Lacritin is full length mature lacritin without signal peptide. N-XX denotes the number of amino acids removed from the N-terminal of mature lacritin and C-XX denotes the number of amino acids removed from the C-terminal of mature lacritin.

[1] = topical application to the eyes of rabbits; cited from earlier work
E. coli = test: Antimicrobial activity assay, colony forming units after incubation with E. coli (Example 2, FIGS. 4 and 5); assay type: cell-based; conditions: for average colony forming units / CFU as % of the control: four hours incubation at 37°C; for % of the bacteria killed: four hours incubation
Experimental: Purified recombinant lacritin variant proteins were assayed for antimicrobial activity by standard methods that involves an incubation period with actively growing bacteria and the protein of interest followed by plating on agar plates supplemented with growth media. The agar plates are incubated overnight and individual colonies are counted and expressed as Colony Forming Units (CFUs). The number of CFUs can be compared to the same bacteria incubated without protein.
E. coli at exponential growth (OD600=0.5) were washed twice in Phosphate Buffer (PB) diluted to a concentration of 1×10^6 cells/ml in PB and incubated with PB (no protein) or test proteins at 37° C. Samples were diluted and plated in triplicate on LB plates after four hours of incubation. Plates were grown at 37° C. overnight and counted. Colony counts were averaged and plotted as CFU/ml×10^3. The incubation volume was 0.5 ml at 25 mM NaCl.
C-25 was tested at a concentration of 53 μg/ml and N-71 was tested at various concentrations in μg/ml as shown in parentheses. pLAC is full length recombinant mature lacritin, and was tested at a concentration of 46 μg/ml. Bacteria incubated with buffer alone (the control) produced an average of 77×10^3 CFU/ml. Incubation with the lacritin variant C-25 produced an average of 79×10^3 or 103% of the control. […] The full-length recombinant lacritin protein (PLAC) produced an average of 38×10^3 CFU/ml or 49% of the control. The variant protein N-71 produced a concentration dependent antimicrobial activity that was less than 1% of the control at a concentration of 28 μg/ml.
The variant lacritin proteins were tested at the concentrations shown in parentheses in μg/ml. Bacteria incubated with buffer alone (the PB control) produced an average of 161×10^3 CFU/ml. Incubation with the lacritin variant N-24 produced an average of 108×10^3 or […] of the control. […] The variant protein N-35 produced an average of 25×10^3 CFU/ml or 16% of the control and the variant N-45 produced an average of 42×10^3 CFU/ml or 26% of the control. These variants are active in antimicrobial activity killing 84% and 74% respectively of the bacteria under the conditions tested. The variant N-55 produced an average of 2×10^3 CPU/ml or 0.01% of the control, the variant N-65 produced an average of 6×10^3 CFU/ml or 0.04% of the control, and the variant N-71 produced an average of 1×10^3 CFU/ml or 0.01% of the control.

E. coli ML-35 = test: Inner membrane permeabilization, ONPG conversion by cytoplasmic β-galactosidase (FIG. 11); assay type: cell-based; conditions: 30 μg/ml; room temperature, 18 hours
Experimental: Inner Membrane Permeabilization. To examine the affect of Lacritin constructs on the inner membrane of gram negative bacteria, an enzymatic assay was conducted using a strain of permease-deficient E. coli, designated E. coli ML-35 (ATCC #43827) which also constitutively produces cytoplasmic βeta-galactosidase. E. coli ML-35 were grown in LB medium for 20 hours at 37° C. as a saturated overnight and then diluted with LB to an absorbance OD600 of 0.5. The cells were washed 3 times in 10 mM sodium phosphate buffer-10 mM NaCl (pH 7.2) and resuspended in 1 ml of the same buffer. The cells were then diluted 1:100 in 10 mM sodium phosphate buffer using two serial 10-fold dilutions. 70 μl of phosphate buffer, 30 μl of 30 mM βeta-galactosidase substrate ONPG (o-nitrophenyl-β-D-galactopyranoside) in 20 mM sodium phosphate buffer, 100 μl of cells in 10 mM sodium phosphate buffer and 50 μl of peptide sample were added to microtiter plate wells in duplicate. The production of ONP (o-nitrophenyl) from ONPG was measured over time using a spectrophotometer set at a wavelength of 415 nm.
Mature Lacritin (pLac) and various constructs of Lacritin were incubated with permease-deficient E. coli ML-35 at room temperature for 18 hours. The conversion of ONPG (o-nitrophenyl-β-D-galactopyranoside) to ONP (o-nitrophenyl) by cytoplasmic β-galactosidase was measured by a spectrophotometer at 415 nm. […]

[2] = test system: human salivary gland cells; conditions: recombinant lacritin produced in bacteria; cultured human salivary gland cells; cited from earlier work
Pseudomonas aeruginosa = test: Colony forming unit antimicrobial assay against pathogenic bacteria (Table 3); assay type: cell-based; conditions: 10 mM phosphate buffer, 3 hours
Experimental: as §1
(§2) Purified lacritin variant proteins at the concentrations shown were incubated with selected pathogenic bacteria in 10 mM phosphate buffer for 3 hours as described in the antimicrobial assay. The total number of colonies were counted and the percent cell death determined using [1-(colonies surviving peptide incubation)/(colony count from PBS control)]×100. N-XX denotes the number of amino acids removed from the N-terminal of mature lacritin.

[3] = test system: Staphylococcus epidermidis; test: as above; assay type: cell-based; conditions: 37.6 μg/ml; 10 mM phosphate buffer, 3 hours
Experimental: as §1, §2

Staphylococcus aureus = test: as above; assay type: cell-based; conditions: 26.3 μg/ml; 10 mM phosphate buffer, 3 hours
Experimental: as §1, §2

[4] = FIG. 5, concentrations only shown in the figure
[5] = FIG. 5, concentrations only shown in the figure, PB control 161×10^3 CFU/ml

N-80: mature lacritin with 80 amino acids removed from the N-terminal (AKAGKGMHGGVPGGKQFIENGSEFAQKLLKKFSLLKPWA; UniProt Q9GZZ8 100-138, looked up, fragment) [Construct N-80]
LC50 (lethal concentration required to kill 50 percent of E. coli) (E. coli (ATCC #10536)): Not Active

N-73: mature lacritin with 73 amino acids removed from the N-terminal (LLTEQALAKAGKGMHGGVPGGKQFIENGSEFAQKLLKKFSLLKPWA; UniProt Q9GZZ8 93-138, looked up, fragment) [Construct N-73]
LC50 (lethal concentration required to kill 50 percent of E. coli) (E. coli (ATCC #10536)): 8.0 µg/mL

MKSIVEKSILLTEQALAKAGKGMHGGVPGGKQFIENGSEFAQKLLKKFSLLKPWA [Construct N-65]
LC50 (lethal concentration required to kill 50 percent of E. coli) (E. coli (ATCC #10536)): 5.5 µg/mL

N-72: mature lacritin with 72 amino acids removed from the N-terminal (ILLTEQALAKAGKGMHGGVPGGKQFIENGSEFAQKLLKKFSLLKPWA; UniProt Q9GZZ8 92-138, looked up, fragment) [Construct N-72]
LC50 (lethal concentration required to kill 50 percent of E. coli) (E. coli (ATCC #10536)): 7.5 µg/mL

MSILLTEQALAKAGKGMHGGVPGGKQFIENGSEFAQKLLKKFSLLKPWA [Construct N-71]
LC50 (lethal concentration required to kill 50 percent of E. coli) (E. coli (ATCC #10536)): 8.0 µg/mL

B1: Lacritin: full length recombinant mature human lacritin without signal peptide, 119 amino acids, SEQ ID NO:27 (protein, listed as Homo sapiens)
chain: EDASSDSTGADPAQEAGTSKPNEEISGPAEPASPPETTTTAQETSAAAVQGTAKVTSSRQELNPLKSIVEKSILLTEQALAKAGKGMHGGVPGGKQFIENGSEFAQKLLKKFSLLKPWA
tear production [1]: increases tear production
LC50 (lethal concentration required to kill 50 percent of E. coli) (E. coli (ATCC #10536)): 11.0 µg/mL
average colony forming units (E. coli; FIG. 4, 46 μg/ml, 25 mM NaCl, buffer control 77×10^3 CFU/ml): 38×10^3 CFU/ml
CFU as % of the control (E. coli; FIG. 4, 46 μg/ml, buffer control 77×10^3 CFU/ml): 49%
inner membrane permeabilization (ONPG to ONP conversion, 415 nm) (E. coli ML-35): damage the cell membrane
cell growth [2]: promotes new cell growth

B2: N-35: mature lacritin with 35 amino acids removed from the N-terminal (protein, listed as Homo sapiens)
chain: METTTTAQETSAAAVQGTAKVTSSRQELNPLKSIVEKSILLTEQALAKAGKGMHGGVPGGKQFIENGSEFAQKLLKKFSLLKPWA
LC50 (lethal concentration required to kill 50 percent of E. coli) (E. coli (ATCC #10536)): 1.5 µg/mL
% of the bacteria killed (E. coli; [4]): 84%
CFU as % of the control (E. coli; [5]): 16%
average colony forming units (E. coli; [5]): 25×10^3 CFU/ml
Cell Death % (Pseudomonas aeruginosa; 36.8 μg/ml): 95%
Cell Death % [3]: 69%

B3: N-45: mature lacritin with 45 amino acids removed from the N-terminal (protein, listed as Homo sapiens)
chain: MAAAVQGTAKVTSSRQELNPLKSIVEKSILLTEQALAKAGKGMHGGVPGGKQFIENGSEFAQKLLKKFSLLKPWA
LC50 (lethal concentration required to kill 50 percent of E. coli) (E. coli (ATCC #10536)): 1.0 µg/mL
% of the bacteria killed (E. coli; [4]): 74%
CFU as % of the control (E. coli; [5]): 26%
average colony forming units (E. coli; [5]): 42×10^3 CFU/ml
Cell Death % (Staphylococcus aureus): 58%
Cell Death % (Pseudomonas aeruginosa; 23.0 μg/ml): 99%
